The text below walks through data of publication PMC9637719.

Where two headings read alike, the source gives them in different places.

The target in assay [1] is JetAB complex (JetA2B4), full-length JetA and JetB (Pseudomonas aeruginosa PA14). The experiment in a line: SEC-MALS.
For assay [2], the target named is JetD (Wadjet nuclease subunit, P. aeruginosa PA14) (Pseudomonas aeruginosa PA14). Briefly: SEC + SEC-MALS.
Assay [3] addresses JetAB complex (JetA2B4), full-length JetA and JetB (Pseudomonas aeruginosa PA14). The experiment in a line: SEC + SEC-MALS.
In assay [4] the target is JetC (Wadjet SMC ATPase subunit, P. aeruginosa PA14), tagless wild type (Pseudomonas aeruginosa PA14). Briefly: SEC + SEC-MALS.
Assay [5] deals with JetAB complex (JetA2B4), full-length JetA and JetB (Pseudomonas aeruginosa PA14). The experiment in a line: SEC + SEC-MALS. This is another data set of the same source.

The substance “JetC^head (JetC^E1022Q,L783A 1-284-[…]-781-1101) (domain or fragment)” showed a stoichiometry N (JetC^head per JetA2B4) in assay [1] of 2. Regarding “JetD (Wadjet nuclease subunit, P. aeruginosa PA14) (natural protein)”, the stoichiometry N in assay [2] turned out to be 2.

For “JetC (Wadjet SMC ATPase subunit, P. aeruginosa PA14), tagless wild type (natural protein)”, the stoichiometry N (JetC per JetA2B4) in assay [3] was found to be 4; in assay [5], 2. Moreover, in assay [4], the stoichiometry N turned out to be 2.
